Literature values as cited in publication PMC11394807.
Read-outs that look alike come from different tables or passages of the source.

Experiments:
[1] = biological target: Spike protein (SARS-CoV-2) (UniProt P0DTC2)
[2] = biological target: Spike protein (SARS-CoV-2) (UniProt P0DTC2); remark: listed apart in the source
[3] = biological target: Spike protein RBD (SARS-CoV-2) (UniProt P0DTC2)
[4] = biological target: Spike protein (SARS-CoV-2) (UniProt P0DTC2); remark: listed apart in the source
[5] = biological target: Spike protein (SARS-CoV-2) (UniProt P0DTC2); remark: listed apart in the source

Chain of GRP78 (P11021 19-654): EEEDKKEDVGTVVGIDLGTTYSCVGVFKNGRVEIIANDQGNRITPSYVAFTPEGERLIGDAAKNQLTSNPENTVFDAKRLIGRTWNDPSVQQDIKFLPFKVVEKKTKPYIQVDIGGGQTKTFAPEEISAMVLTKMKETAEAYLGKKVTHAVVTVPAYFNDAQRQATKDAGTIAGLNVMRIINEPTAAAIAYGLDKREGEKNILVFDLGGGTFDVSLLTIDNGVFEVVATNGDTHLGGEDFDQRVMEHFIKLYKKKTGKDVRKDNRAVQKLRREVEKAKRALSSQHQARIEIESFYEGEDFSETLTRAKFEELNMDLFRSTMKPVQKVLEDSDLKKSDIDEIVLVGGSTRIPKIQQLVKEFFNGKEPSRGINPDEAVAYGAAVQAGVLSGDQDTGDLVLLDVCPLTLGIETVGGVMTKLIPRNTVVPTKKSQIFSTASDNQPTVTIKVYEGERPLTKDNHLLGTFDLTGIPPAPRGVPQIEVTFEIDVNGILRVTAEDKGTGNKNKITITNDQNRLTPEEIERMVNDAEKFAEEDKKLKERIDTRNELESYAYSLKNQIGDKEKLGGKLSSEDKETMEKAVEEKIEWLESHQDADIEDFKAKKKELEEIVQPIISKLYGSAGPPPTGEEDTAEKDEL
Chain of ASGR1 (P07306 whole entry): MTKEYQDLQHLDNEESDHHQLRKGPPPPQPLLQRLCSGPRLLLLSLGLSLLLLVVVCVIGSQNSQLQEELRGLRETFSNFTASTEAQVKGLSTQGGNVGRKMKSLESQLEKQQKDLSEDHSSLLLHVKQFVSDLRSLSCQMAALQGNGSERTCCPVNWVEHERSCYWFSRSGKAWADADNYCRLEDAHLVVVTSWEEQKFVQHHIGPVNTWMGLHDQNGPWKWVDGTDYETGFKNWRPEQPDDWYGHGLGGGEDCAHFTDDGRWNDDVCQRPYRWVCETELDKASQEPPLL

ASGR1 (from UniProt P07306)
Kd [1]: 125 nM

AXL (from UniProt P30530)
Kd [2]: 882 nM

CD147 (from UniProt P35613)
Kd [3]: 185 nM

GRP78 (from UniProt P11021)
Kd [4]: 55.2 nM

NRP1 (from UniProt O14786)
Kd [5]: 166 nM
